Measured values: patent publication US20230295348A1 (NOVIMMUNE, published 2023)
One block for each binder: values may come before it.

How the values were obtained:
human recombinant IL-2Rγ = target: T1, human recombinant IL-2Rγ (human, UniProt P31785 23-262, limits assumed); assay: direct ELISA, biotinylated recombinant protein on streptavidin plates
T1 construct: Biotinylated and captured on streptavidin plates in the ELISA; also called IL-2Rg; IL2Rg
T1 sequence (looked up): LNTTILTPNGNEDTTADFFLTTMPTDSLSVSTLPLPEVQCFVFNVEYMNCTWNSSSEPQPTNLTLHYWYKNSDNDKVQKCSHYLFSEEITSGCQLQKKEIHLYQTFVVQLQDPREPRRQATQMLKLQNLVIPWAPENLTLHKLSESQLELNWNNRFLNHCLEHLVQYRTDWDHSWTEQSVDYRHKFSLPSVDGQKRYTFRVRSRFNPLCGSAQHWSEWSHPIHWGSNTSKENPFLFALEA

human recombinant HER2 = target: T2, human recombinant HER2 (human, UniProt P04626 23-652); assay: as above
T2 construct: Biotinylated and captured on streptavidin plates in the ELISA; also called human epidermal growth factor receptor 2

B2: AM2N2-19 (bispecific antibody, human IgG1, kappa, lambda, L234A L235A)
heavy: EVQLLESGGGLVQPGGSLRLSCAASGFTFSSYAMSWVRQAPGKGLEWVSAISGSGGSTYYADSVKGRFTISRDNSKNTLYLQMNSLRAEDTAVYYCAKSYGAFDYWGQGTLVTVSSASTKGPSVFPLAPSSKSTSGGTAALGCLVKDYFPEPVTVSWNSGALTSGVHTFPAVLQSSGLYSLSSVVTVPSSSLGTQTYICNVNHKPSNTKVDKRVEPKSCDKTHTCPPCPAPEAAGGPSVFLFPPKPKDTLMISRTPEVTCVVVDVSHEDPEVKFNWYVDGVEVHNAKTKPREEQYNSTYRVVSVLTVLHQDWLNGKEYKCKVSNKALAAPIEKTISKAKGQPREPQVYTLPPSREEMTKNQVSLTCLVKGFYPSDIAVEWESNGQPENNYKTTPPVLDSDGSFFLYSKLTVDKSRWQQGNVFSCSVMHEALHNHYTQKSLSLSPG
light 1: DIQLTQSPSFLSASVGDRVTITCRASQTIDAPLRWYQQKPGKAPKLLIYLTSSLQSGVPSRFSGSGSGTEFTLTISSLQPEDFATYYCQQGYAAGPSTFGQGTKVEIKRTVAAPSVFIFPPSDEQLKSGTASVVCLLNNFYPREAKVQWKVDNALQSGNSQESVTEQDSKDSTYSLSSTLTLSKADYEKHKVYACEVTHQGLSSPVTKSFNRGEC
light 2: QSVLTQPPSVSGAPGQRVTISCTGSSSNIENTHTVHWYQQLPGTAPKLLIYDASIRPSGVPDRFSGSKSGTSASLAITGLQAEDEADYYCQSYDWLRGAQVFGGGTKLTVLGQPKAAPSVTLFPPSSEELQANKATLVCLISDFYPGAVTVAWKADSSPVKAGVETTTPSKQSNNKYAASSYLSLTPEQWKSHRSYSCQVTHEGSTVEKTVAPTECS
notes: κλ-body: common heavy chain, kappa anti-IL2Rγ light chain (AM2), lambda anti-HER2 light chain (N2-19); also called AM2N2-19/N
binding result (human recombinant IL-2Rγ): binds
binding result (human recombinant HER2): binds

B4: AM4N2-19 (bispecific antibody, human IgG1, kappa, lambda, L234A L235A)
heavy: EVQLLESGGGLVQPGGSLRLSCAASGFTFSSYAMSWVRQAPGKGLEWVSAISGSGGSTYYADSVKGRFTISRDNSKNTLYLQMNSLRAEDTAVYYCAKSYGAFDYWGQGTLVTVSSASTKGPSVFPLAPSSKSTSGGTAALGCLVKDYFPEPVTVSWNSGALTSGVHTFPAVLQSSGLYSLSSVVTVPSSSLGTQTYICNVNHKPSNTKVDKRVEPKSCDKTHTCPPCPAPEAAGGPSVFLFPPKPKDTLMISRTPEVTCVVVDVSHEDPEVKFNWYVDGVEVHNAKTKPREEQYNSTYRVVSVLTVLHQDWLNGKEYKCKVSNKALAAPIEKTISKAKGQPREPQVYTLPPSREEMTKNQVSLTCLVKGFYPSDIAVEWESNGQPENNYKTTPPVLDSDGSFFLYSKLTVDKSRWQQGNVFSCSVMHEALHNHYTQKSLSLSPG
light 1: DIQMTQSPSTLSASVGDRVTITCRASQTIYGPLNWYQQKPGKAPKLLIYSTSYLESGVPSRFSGSGSGTEFTLTISSLQPDDFATYYCQQAGYASAPTFGQGTKVEIKRTVAAPSVFIFPPSDEQLKSGTASVVCLLNNFYPREAKVQWKVDNALQSGNSQESVTEQDSKDSTYSLSSTLTLSKADYEKHKVYACEVTHQGLSSPVTKSFNRGEC
light 2: QSVLTQPPSVSGAPGQRVTISCTGSSSNIENTHTVHWYQQLPGTAPKLLIYDASIRPSGVPDRFSGSKSGTSASLAITGLQAEDEADYYCQSYDWLRGAQVFGGGTKLTVLGQPKAAPSVTLFPPSSEELQANKATLVCLISDFYPGAVTVAWKADSSPVKAGVETTTPSKQSNNKYAASSYLSLTPEQWKSHRSYSCQVTHEGSTVEKTVAPTECS
notes: κλ-body: common heavy chain, kappa anti-IL2Rγ light chain (AM4), lambda anti-HER2 light chain (N2-19); also called AM4N2-19/N
binding result (human recombinant IL-2Rγ): binds
binding result (human recombinant HER2): binds

B5: AM5N2-19 (bispecific antibody, human IgG1, kappa, lambda, L234A L235A)
heavy: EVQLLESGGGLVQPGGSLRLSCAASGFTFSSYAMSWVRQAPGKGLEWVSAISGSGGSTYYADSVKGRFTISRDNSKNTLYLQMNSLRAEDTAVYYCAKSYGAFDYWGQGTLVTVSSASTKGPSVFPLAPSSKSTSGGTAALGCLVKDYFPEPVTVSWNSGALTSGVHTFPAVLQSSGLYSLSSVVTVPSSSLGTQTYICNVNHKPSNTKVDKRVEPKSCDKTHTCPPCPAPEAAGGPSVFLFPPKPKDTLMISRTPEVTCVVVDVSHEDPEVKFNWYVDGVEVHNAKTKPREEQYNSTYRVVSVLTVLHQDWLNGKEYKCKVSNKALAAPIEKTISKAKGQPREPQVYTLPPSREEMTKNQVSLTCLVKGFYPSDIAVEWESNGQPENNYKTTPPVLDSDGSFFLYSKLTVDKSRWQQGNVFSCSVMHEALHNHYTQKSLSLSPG
light 1: not shown
light 2: QSVLTQPPSVSGAPGQRVTISCTGSSSNIENTHTVHWYQQLPGTAPKLLIYDASIRPSGVPDRFSGSKSGTSASLAITGLQAEDEADYYCQSYDWLRGAQVFGGGTKLTVLGQPKAAPSVTLFPPSSEELQANKATLVCLISDFYPGAVTVAWKADSSPVKAGVETTTPSKQSNNKYAASSYLSLTPEQWKSHRSYSCQVTHEGSTVEKTVAPTECS
notes: κλ-body: common heavy chain, kappa anti-IL2Rγ light chain (AM5), lambda anti-HER2 light chain (N2-19); also called AM5N2-19/N
binding result (human recombinant IL-2Rγ): binds
binding result (human recombinant HER2): binds

B6: AM6N2-19 (bispecific antibody, human IgG1, kappa, lambda, L234A L235A)
heavy: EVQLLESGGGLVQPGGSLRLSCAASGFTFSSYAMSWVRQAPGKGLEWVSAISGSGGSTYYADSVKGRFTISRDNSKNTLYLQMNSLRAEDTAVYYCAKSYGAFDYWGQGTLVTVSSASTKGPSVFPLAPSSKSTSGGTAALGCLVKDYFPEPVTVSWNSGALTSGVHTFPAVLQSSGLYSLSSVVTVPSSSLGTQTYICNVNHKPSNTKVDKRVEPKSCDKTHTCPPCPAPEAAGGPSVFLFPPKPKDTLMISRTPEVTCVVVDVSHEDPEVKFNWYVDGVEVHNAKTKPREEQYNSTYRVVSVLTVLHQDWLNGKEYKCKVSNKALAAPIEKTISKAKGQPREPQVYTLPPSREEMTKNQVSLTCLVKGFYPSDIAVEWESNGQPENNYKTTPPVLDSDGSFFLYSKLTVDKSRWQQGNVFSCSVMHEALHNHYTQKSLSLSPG
light 1: not shown
light 2: QSVLTQPPSVSGAPGQRVTISCTGSSSNIENTHTVHWYQQLPGTAPKLLIYDASIRPSGVPDRFSGSKSGTSASLAITGLQAEDEADYYCQSYDWLRGAQVFGGGTKLTVLGQPKAAPSVTLFPPSSEELQANKATLVCLISDFYPGAVTVAWKADSSPVKAGVETTTPSKQSNNKYAASSYLSLTPEQWKSHRSYSCQVTHEGSTVEKTVAPTECS
notes: κλ-body: common heavy chain, kappa anti-IL2Rγ light chain (AM6), lambda anti-HER2 light chain (N2-19); also called AM6N2-19/N
binding result (human recombinant IL-2Rγ): binds
binding result (human recombinant HER2): binds

B9: AM9N2-19 (bispecific antibody, human IgG1, kappa, lambda, L234A L235A)
heavy: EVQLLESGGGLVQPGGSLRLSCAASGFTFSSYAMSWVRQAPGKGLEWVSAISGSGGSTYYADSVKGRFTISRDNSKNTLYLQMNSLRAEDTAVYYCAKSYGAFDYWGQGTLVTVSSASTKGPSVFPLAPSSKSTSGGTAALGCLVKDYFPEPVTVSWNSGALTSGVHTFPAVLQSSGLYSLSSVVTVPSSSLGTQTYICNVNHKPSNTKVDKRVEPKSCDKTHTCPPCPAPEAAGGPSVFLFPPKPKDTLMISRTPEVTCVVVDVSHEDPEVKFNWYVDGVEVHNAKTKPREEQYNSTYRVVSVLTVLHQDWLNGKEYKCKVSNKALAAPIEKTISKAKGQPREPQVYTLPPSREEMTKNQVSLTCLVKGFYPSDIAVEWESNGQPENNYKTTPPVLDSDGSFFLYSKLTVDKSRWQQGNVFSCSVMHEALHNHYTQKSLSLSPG
light 1: not shown
light 2: QSVLTQPPSVSGAPGQRVTISCTGSSSNIENTHTVHWYQQLPGTAPKLLIYDASIRPSGVPDRFSGSKSGTSASLAITGLQAEDEADYYCQSYDWLRGAQVFGGGTKLTVLGQPKAAPSVTLFPPSSEELQANKATLVCLISDFYPGAVTVAWKADSSPVKAGVETTTPSKQSNNKYAASSYLSLTPEQWKSHRSYSCQVTHEGSTVEKTVAPTECS
notes: κλ-body: common heavy chain, kappa anti-IL2Rγ light chain (AM9), lambda anti-HER2 light chain (N2-19); also called AM9N2-19/N
binding result (human recombinant IL-2Rγ): binds
binding result (human recombinant HER2): binds

B10: AM10N2-19 (bispecific antibody, human IgG1, kappa, lambda, L234A L235A)
heavy: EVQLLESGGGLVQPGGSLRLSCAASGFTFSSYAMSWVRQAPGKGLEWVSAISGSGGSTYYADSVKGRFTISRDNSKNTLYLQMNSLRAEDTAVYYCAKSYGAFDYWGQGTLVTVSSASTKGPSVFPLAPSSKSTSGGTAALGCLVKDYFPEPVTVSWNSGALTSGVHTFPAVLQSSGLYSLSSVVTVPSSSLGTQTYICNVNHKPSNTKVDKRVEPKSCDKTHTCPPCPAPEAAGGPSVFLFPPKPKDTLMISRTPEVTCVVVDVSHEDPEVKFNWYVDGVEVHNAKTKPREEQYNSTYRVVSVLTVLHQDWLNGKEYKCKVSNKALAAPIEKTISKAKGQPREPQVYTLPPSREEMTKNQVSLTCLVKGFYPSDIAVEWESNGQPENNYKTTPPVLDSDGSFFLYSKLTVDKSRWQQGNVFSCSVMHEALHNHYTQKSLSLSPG
light 1: not shown
light 2: QSVLTQPPSVSGAPGQRVTISCTGSSSNIENTHTVHWYQQLPGTAPKLLIYDASIRPSGVPDRFSGSKSGTSASLAITGLQAEDEADYYCQSYDWLRGAQVFGGGTKLTVLGQPKAAPSVTLFPPSSEELQANKATLVCLISDFYPGAVTVAWKADSSPVKAGVETTTPSKQSNNKYAASSYLSLTPEQWKSHRSYSCQVTHEGSTVEKTVAPTECS
notes: κλ-body: common heavy chain, kappa anti-IL2Rγ light chain (AM10), lambda anti-HER2 light chain (N2-19); also called AM10N2-19/N
binding result (human recombinant IL-2Rγ): binds
binding result (human recombinant HER2): binds

B12: AM5O35 (bispecific antibody, human IgG1, kappa, lambda, L234A L235A)
heavy: not shown
light 1: not shown
light 2: QPVLTQPVSLSASPGASVSLTCTLRSDIRVRDYRIFWYQQKPGSPPQYLLRYKTDSDKQQGSGVPSRFSGSKDASANAGILLISGLQSEDEADYYCMIWHRTTGTSLVFGGGTKLTVLGQPKAAPSVTLFPPSSEELQANKATLVCLISDFYPGAVTVAWKADSSPVKAGVETTTPSKQSNNKYAASSYLSLTPEQWKSHRSYSCQVTHEGSTVEKTVAPTECS
notes: κλ-body: common heavy chain, kappa anti-IL2Rγ light chain (AM5), lambda anti-MSLN light chain (O35); also called AM5O35/N
binding result (human recombinant IL-2Rγ): binds

B13: AM5O38 (bispecific antibody, human IgG1, kappa, lambda, L234A L235A)
heavy: not shown
light 1: not shown
light 2: QPVLTQPASLSASPGASASLTCTLRSGINVRDYRIFWYQQKPGSPPQYLLRYKSASDKQQGSGVPSRFSGSKDASANAGILLISGLQSEDEADYYCMIWHHDSEGHAFVFGGGTKLTVLGQPKAAPSVTLFPPSSEELQANKATLVCLISDFYPGAVTVAWKADSSPVKAGVETTTPSKQSNNKYAASSYLSLTPEQWKSHRSYSCQVTHEGSTVEKTVAPTECS
notes: κλ-body: common heavy chain, kappa anti-IL2Rγ light chain (AM5), lambda anti-MSLN light chain (O38); also called AM5O38/N
binding result (human recombinant IL-2Rγ): binds

Further lines, results first:

binding result (human recombinant IL-2Rγ): binds
binding result (human recombinant HER2): binds
B1: AM1N2-19 (bispecific antibody, human IgG1, kappa, lambda, L234A L235A)
heavy: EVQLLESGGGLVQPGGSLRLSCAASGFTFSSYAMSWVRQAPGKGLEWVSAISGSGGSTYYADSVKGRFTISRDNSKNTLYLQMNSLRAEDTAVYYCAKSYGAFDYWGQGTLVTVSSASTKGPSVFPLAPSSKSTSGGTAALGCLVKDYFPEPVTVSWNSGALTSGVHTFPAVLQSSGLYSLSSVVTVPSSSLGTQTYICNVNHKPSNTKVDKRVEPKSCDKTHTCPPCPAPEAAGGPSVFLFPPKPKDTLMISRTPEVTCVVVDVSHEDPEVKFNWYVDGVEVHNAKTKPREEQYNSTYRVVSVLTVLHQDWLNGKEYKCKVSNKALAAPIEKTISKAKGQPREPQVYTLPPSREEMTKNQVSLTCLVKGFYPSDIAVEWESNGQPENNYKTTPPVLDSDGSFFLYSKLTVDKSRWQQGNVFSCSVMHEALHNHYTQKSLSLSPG
light 1: DIQMTQSPSSLSASVGDRVTITCRASQSIYYYLNWYQQKPGKAPKLLIYDASALQSGVPSRFSGSGSGTDFTLTISSLQPEDFATYYCQQIDFTAGSITFGQGTKVEIKRTVAAPSVFIFPPSDEQLKSGTASVVCLLNNFYPREAKVQWKVDNALQSGNSQESVTEQDSKDSTYSLSSTLTLSKADYEKHKVYACEVTHQGLSSPVTKSFNRGEC
light 2: QSVLTQPPSVSGAPGQRVTISCTGSSSNIENTHTVHWYQQLPGTAPKLLIYDASIRPSGVPDRFSGSKSGTSASLAITGLQAEDEADYYCQSYDWLRGAQVFGGGTKLTVLGQPKAAPSVTLFPPSSEELQANKATLVCLISDFYPGAVTVAWKADSSPVKAGVETTTPSKQSNNKYAASSYLSLTPEQWKSHRSYSCQVTHEGSTVEKTVAPTECS
notes: κλ-body: common heavy chain, kappa anti-IL2Rγ light chain (AM1), lambda anti-HER2 light chain (N2-19); also called AM1N2-19/N

binding result (human recombinant IL-2Rγ): binds
binding result (human recombinant HER2): binds
B3: AM3N2-19 (bispecific antibody, human IgG1, kappa, lambda, L234A L235A)
heavy: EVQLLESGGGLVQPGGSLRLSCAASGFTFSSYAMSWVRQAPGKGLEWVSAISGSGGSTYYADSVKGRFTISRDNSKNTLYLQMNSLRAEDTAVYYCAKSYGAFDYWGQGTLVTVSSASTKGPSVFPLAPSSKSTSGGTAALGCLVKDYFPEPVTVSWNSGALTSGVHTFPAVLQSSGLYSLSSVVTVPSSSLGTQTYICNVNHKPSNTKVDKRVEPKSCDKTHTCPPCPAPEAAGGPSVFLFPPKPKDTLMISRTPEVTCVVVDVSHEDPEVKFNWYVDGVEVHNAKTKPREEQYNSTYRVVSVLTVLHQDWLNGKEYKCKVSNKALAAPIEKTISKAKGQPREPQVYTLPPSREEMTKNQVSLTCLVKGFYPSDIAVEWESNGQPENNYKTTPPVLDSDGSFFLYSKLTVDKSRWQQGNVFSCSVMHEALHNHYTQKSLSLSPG
light 1: DIQMTQSPSTLSASVGDTVTITCRASHYITTWLAWYQQKPGKAPKLLIYDVSSLESGVPSRFRGRGSGTEFTLTISSLQPDDFATYYCQQYESYSPTFGQGTKVEIKRTVAAPSVFIFPPSDEQLKSGTASVVCLLNNFYPREAKVQWKVDNALQSGNSQESVTEQDSKDSTYSLSSTLTLSKADYEKHKVYACEVTHQGLSSPVTKSFNRGEC
light 2: QSVLTQPPSVSGAPGQRVTISCTGSSSNIENTHTVHWYQQLPGTAPKLLIYDASIRPSGVPDRFSGSKSGTSASLAITGLQAEDEADYYCQSYDWLRGAQVFGGGTKLTVLGQPKAAPSVTLFPPSSEELQANKATLVCLISDFYPGAVTVAWKADSSPVKAGVETTTPSKQSNNKYAASSYLSLTPEQWKSHRSYSCQVTHEGSTVEKTVAPTECS
notes: κλ-body: common heavy chain, kappa anti-IL2Rγ light chain (AM3), lambda anti-HER2 light chain (N2-19); also called AM3N2-19/N

binding result (human recombinant IL-2Rγ): binds
binding result (human recombinant HER2): binds
B7: AM7N2-19 (bispecific antibody, human IgG1, kappa, lambda, L234A L235A)
heavy: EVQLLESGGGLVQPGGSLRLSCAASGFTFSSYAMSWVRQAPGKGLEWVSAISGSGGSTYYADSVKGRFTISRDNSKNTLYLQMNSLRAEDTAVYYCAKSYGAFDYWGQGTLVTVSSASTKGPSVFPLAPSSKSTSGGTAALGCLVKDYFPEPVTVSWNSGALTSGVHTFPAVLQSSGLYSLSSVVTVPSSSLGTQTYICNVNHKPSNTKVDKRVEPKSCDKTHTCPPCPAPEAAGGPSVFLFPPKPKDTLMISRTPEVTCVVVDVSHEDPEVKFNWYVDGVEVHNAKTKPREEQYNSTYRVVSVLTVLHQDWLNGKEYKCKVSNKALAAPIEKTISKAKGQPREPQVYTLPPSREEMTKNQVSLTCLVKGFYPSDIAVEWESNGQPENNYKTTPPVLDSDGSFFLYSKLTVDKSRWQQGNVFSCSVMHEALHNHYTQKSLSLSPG
light 1: DIQLTQSPSFLSASVGDRVTITCRASQDIGIELAWYQQKPGKAPKLLIYFESHLQSGVPSRFSGSGSGTEFTLTISSLQPEDFATYYCQQIRIDPTFGQGTKVEIKRTVAAPSVFIFPPSDEQLKSGTASVVCLLNNFYPREAKVQWKVDNALQSGNSQESVTEQDSKDSTYSLSSTLTLSKADYEKHKVYACEVTHQGLSSPVTKSFNRGEC
light 2: QSVLTQPPSVSGAPGQRVTISCTGSSSNIENTHTVHWYQQLPGTAPKLLIYDASIRPSGVPDRFSGSKSGTSASLAITGLQAEDEADYYCQSYDWLRGAQVFGGGTKLTVLGQPKAAPSVTLFPPSSEELQANKATLVCLISDFYPGAVTVAWKADSSPVKAGVETTTPSKQSNNKYAASSYLSLTPEQWKSHRSYSCQVTHEGSTVEKTVAPTECS
notes: κλ-body: common heavy chain, kappa anti-IL2Rγ light chain (AM7), lambda anti-HER2 light chain (N2-19); also called AM7N2-19/N

binding result (human recombinant IL-2Rγ): binds
binding result (human recombinant HER2): binds
B8: AM8N2-19 (bispecific antibody, human IgG1, kappa, lambda, L234A L235A)
heavy: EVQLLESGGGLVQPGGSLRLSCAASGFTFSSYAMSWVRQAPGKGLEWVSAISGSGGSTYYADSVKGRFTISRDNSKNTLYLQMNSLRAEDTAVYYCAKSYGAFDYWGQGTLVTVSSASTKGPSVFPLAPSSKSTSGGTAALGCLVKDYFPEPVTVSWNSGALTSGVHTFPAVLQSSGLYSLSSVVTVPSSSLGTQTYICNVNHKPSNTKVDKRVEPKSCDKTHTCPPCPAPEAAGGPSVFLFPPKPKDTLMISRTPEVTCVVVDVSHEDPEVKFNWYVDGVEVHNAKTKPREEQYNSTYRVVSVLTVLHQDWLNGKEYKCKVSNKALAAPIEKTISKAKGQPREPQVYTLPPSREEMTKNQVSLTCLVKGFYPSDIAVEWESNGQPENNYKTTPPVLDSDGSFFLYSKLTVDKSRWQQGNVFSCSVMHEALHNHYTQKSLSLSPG
light 1: EIVLTQSPGTLSLSPGERATLSCRASQDVATRGLAWYQQKPGQAPRLLIYGASSRATGIPDRFSGSGSGTDFTLTISRLEPEDFAVYYCQQYELEHPATFGQGTKVEIKRTVAAPSVFIFPPSDEQLKSGTASVVCLLNNFYPREAKVQWKVDNALQSGNSQESVTEQDSKDSTYSLSSTLTLSKADYEKHKVYACEVTHQGLSSPVTKSFNRGEC
light 2: QSVLTQPPSVSGAPGQRVTISCTGSSSNIENTHTVHWYQQLPGTAPKLLIYDASIRPSGVPDRFSGSKSGTSASLAITGLQAEDEADYYCQSYDWLRGAQVFGGGTKLTVLGQPKAAPSVTLFPPSSEELQANKATLVCLISDFYPGAVTVAWKADSSPVKAGVETTTPSKQSNNKYAASSYLSLTPEQWKSHRSYSCQVTHEGSTVEKTVAPTECS
notes: κλ-body: common heavy chain, kappa anti-IL2Rγ light chain (AM8), lambda anti-HER2 light chain (N2-19); also called AM8N2-19/N

binding result (human recombinant IL-2Rγ): binds
binding result (human recombinant HER2): binds
B11: AM11N2-19 (bispecific antibody, human IgG1, kappa, lambda, L234A L235A)
heavy: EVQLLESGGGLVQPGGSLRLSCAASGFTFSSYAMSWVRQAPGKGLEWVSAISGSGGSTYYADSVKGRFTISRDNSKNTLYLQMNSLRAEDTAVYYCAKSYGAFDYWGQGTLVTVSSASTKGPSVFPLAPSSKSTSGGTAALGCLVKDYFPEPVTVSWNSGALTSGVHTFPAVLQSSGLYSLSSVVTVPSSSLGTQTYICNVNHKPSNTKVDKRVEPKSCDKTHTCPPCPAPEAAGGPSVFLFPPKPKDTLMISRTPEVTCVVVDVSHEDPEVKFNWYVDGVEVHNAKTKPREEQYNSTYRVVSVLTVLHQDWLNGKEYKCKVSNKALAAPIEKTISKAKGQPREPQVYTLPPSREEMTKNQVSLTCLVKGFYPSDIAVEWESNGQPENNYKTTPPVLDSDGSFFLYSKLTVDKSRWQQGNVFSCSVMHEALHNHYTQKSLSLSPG
light 1: EIVLTQSPGTLSLSPGERATLSCRASQNVNHNFLTWYQQKPGQAPRLLIYSASARATGIPDRFSGSGSGTDFTLTISRLEPEDFAVYYCQQFNYAPLTFGQGTKVEIKRTVAAPSVFIFPPSDEQLKSGTASVVCLLNNFYPREAKVQWKVDNALQSGNSQESVTEQDSKDSTYSLSSTLTLSKADYEKHKVYACEVTHQGLSSPVTKSFNRGEC
light 2: QSVLTQPPSVSGAPGQRVTISCTGSSSNIENTHTVHWYQQLPGTAPKLLIYDASIRPSGVPDRFSGSKSGTSASLAITGLQAEDEADYYCQSYDWLRGAQVFGGGTKLTVLGQPKAAPSVTLFPPSSEELQANKATLVCLISDFYPGAVTVAWKADSSPVKAGVETTTPSKQSNNKYAASSYLSLTPEQWKSHRSYSCQVTHEGSTVEKTVAPTECS
notes: κλ-body: common heavy chain, kappa anti-IL2Rγ light chain (AM11), lambda anti-HER2 light chain (N2-19); also called AM11N2-19/N

binding result (human recombinant IL-2Rγ): binds
B14: AM5O41 (bispecific antibody, human IgG1, kappa, lambda, L234A L235A)
heavy: not shown
light 1: not shown
light 2: SYVLTQPPSVSVAPGKTARITCGGNKIGHRAVHWYQQKPGQAPVLVIYYTYERPSGIPERFSGSNSGNTATLTISRVEAGDEADYYCQVWDWYSEGGVVFGGGTKLTVLGQPKAAPSVTLFPPSSEELQANKATLVCLISDFYPGAVTVAWKADSSPVKAGVETTTPSKQSNNKYAASSYLSLTPEQWKSHRSYSCQVTHEGSTVEKTVAPTECS
notes: κλ-body: common heavy chain, kappa anti-IL2Rγ light chain (AM5), lambda anti-MSLN light chain (O41); also called AM5O41/N
